The text below walks through data of PMC2196380.

This experiment deals with HLA-DM (DMα/DMβ heterodimer) (human (endogenous in B-LCL)) (UniProt P28067). The experiment in a line: co-IP.
Sequence of UniProt P28067 (P28067 27-261, chain 1 of 2): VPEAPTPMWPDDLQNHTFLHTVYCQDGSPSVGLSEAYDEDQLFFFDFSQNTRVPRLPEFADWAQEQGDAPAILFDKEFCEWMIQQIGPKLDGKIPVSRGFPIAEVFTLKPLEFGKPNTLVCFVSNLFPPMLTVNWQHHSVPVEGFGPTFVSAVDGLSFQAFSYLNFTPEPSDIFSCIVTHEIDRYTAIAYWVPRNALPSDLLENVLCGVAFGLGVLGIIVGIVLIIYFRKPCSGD
Sequence of UniProt P28067 (P28068 19-263, chain 2 of 2, further chain): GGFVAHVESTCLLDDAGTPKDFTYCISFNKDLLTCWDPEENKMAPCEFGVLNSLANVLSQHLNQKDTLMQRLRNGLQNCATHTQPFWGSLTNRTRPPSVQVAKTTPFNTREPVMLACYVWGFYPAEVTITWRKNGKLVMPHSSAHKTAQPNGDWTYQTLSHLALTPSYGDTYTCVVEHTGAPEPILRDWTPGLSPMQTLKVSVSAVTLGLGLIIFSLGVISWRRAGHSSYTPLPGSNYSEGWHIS

“wild-type HLA-DR3 αβCLIP complexes from T2.DR3 cells (from UniProt P01903 26-254) (peptide-MHC)”: the percent coprecipitated with DM turned out to be 14%.
